Measured values taken from US20190169240, “DNA-BINDING PROTEIN USING PPR MOTIF, AND USE THEREOF” (KYUSHU UNIVERSITY, NAT'L UNIVERSITY CORPORATION, published 2019).

What was measured:
Conditions in all cases: tags: N-terminal Flag and nuclear localization signal, C-terminal VP64
[1] = target: T1, GUN1-VP64 (PPR motif region) (Arabidopsis thaliana, UniProt Q9SIC9 SEQ:234-621); experiment: cell_activity; 8x target reporter; HEK293T, Fluc/Rluc vs pminCMV-luc2
T1 chain: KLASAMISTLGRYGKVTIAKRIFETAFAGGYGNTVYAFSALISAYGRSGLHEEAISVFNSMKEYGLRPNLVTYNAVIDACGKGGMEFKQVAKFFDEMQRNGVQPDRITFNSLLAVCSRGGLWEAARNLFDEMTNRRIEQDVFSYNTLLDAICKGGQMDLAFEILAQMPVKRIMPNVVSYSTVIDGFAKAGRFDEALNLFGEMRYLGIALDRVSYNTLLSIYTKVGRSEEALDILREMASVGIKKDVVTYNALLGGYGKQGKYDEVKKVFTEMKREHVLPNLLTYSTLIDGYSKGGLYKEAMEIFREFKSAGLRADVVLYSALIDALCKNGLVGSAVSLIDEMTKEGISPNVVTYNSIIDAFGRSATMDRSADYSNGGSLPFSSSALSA
Experimental: (§1) A reporter vector (pminCMV-luc2, SEQ ID NO: 10) was prepared, in which the firefly luciferase gene was ligated downstream from the Minimal CMV promoter, and a multi-cloning site was placed upstream of the promoter. The predicted target sequence of each PPR was inserted into the vector at the multi-cloning site. The target sequence of each PPR ([…] for p63, […] for pTac2, and […] for GUN1, SEQ ID NOS: 11 to 13 in Sequence Listing) was determined by predicting the motif-DNA recognition codes of DNA-binding type PPR from the motif-RNA recognition codes observed in the RNA-binding type PPR. For each PPR, sequences containing 4 or 8 of target sequences were prepared, and used in the following assay. The nucleotide sequences of the vectors are shown as SEQ ID NOS: 14 to 19 in Sequence Listing. […]
(§2) The luciferase activity was compared for the cases of introducing pTac2-VP64 or GUN1-VP64 together with pminCMV-luc2 for a negative control, or the reporter vector having 4 or 8 target sequences (table mentioned below, FIG. 6). The comparison of the activity was performed on the basis of standardized scores obtained by dividing the measured values obtained with Fluc (firefly luciferase) with the measured value obtained with Rluc (Renilla luciferase) as the reference (Fluc/Rluc).

[2] = target: T1, GUN1-VP64 (PPR motif region); experiment: cell_activity; 4x target reporter; HEK293T, Fluc/Rluc vs pminCMV-luc2
Experimental: as §1, §2

[3] = target: T2, pTac2-VP64 (PPR motif region) (Arabidopsis thaliana, UniProt Q9S7Q2 SEQ:106-632); experiment: cell_activity; 8x target reporter; HEK293T, Fluc/Rluc vs pminCMV-luc2
T2 chain: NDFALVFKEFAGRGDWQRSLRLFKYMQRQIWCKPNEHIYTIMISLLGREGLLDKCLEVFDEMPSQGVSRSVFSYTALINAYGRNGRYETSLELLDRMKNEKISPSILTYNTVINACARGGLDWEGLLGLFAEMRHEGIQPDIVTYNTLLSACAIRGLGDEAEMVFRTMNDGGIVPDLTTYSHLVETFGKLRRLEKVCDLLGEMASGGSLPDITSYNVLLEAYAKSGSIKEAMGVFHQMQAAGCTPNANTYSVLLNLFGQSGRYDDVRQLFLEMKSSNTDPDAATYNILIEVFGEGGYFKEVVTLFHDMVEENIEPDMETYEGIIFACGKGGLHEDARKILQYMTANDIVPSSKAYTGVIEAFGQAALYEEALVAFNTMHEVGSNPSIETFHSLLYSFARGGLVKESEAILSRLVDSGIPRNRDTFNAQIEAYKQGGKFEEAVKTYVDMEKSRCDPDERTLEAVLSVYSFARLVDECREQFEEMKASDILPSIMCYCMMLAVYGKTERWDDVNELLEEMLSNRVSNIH
Experimental: as §1, §2

B1: GUN1 predicted target (dsDNA)
DNA 1: AATTTGTCGAT
DNA 2: ATCGACAAATT
**Q.** Which activity [1] does the source give for B1 here?
**A.** 3.15 fold activation

**Q.** And the activity [2]?
**A.** 2.88 fold activation

B2: pTac2 predicted target (dsDNA)
DNA 1: AACTTTCGTCACTCA
DNA 2: TGAGTGACGAAAGTT
**Q.** B2 was tested. Which activity [3] did it give?
**A.** 4.89 fold activation
